The Ki is a dissociation constant, usually derived from enzyme kinetics or from competition with a known ligand. A word on the kcat: it is the maximal rate divided by the concentration of active sites. One may read the Km as the substrate concentration at which the rate is half of its maximum.

The values below come from patent US20200392528A1, “IMPROVED PLANT EPSP SYNTHASES AND METHODS OF USE” (PIONEER HI-BRED INTERNATIONAL, INC., priority 2017, published 2020).

To fix the notation:
B1: Zm D2c-A5: maize EPSPS variant with 21 mutations, SEQ ID NO: 59 (protein)
chain: MSKWEEIVLQPIKEISGTVKLPGSKSLSNRILLLAALSEGTTVVDNLLNSEDVGYMLGALRTLGLSVEHDEAAKRAVVVGCGGRFPVEDAKGEVQLFCGNAATAMRPLTAAVTAAGGNATYVLDGVPRMRERPIGDLVVGLKQLGADVDCFLGTDCPPVRVRGIGGLPGGKVKLSGSISSQYLSALLMAAPLALGDVEIEIIDKLISLPYVEMTLRLMERFGVRAEHSDSWDRFYIKGGQKYESPKNAYVEGDASSASYFLAGAAITGGTVTVEGCGTTSLQGDVKFAEVLELMGAKVTWTPTSVTVTGPPREPFGRKHLKAIDVNMNKMPDAAMTLAVVALFADGPTAIRDVGSWRVKETERMVAIRTELTKLGASVEEGPDYCIITPPPKLNVTAIDTYGDHRMAMAFSLAACGEVPVTIRDPGCTRKTFPDYFDVLSTFVKN
modifications: Zea mays
B2: Zm D2-3P124: maize EPSPS variant, SEQ ID NO: 3; D2-124 has 18 mutations (protein)
chain: B1 chain with S2R, R162N, L293M, P302E
modifications: Zea mays
notes: D2-124 has 18 mutations
B3: Zm D2-28: maize EPSPS variant, SEQ ID NO: 8 (protein)
chain: MRKWEEIVLQPIKEISGTVKLPGSKSLSNRILLLAGLAEGTTVVDNLLNSEDVHYMLGALRTLGLSVEHDKAAKRAVVVGCGGRFPVEDAKGEVQLFCGNAATAMRPLTAAVTAAGGNATYVLDGVPRMRERPIGDLVVGLKQLGADVDCFLGTDCPPVRVNGIGGLPGGKVKLSGSISSQYLSALLMAAPLALGDVEIEIIDKLISLPYVEMTLRLMERFGVKAERSDSWDRFYIKGGQSYLSPKNAYVEGDASSASYFLAGAAITGGTVTVEGCGTTSLQGDVKFAEVLEMMGAKVTWTEASVTVTGPPREPFGRKHLKAIDVNMNKMPDAAMTLAVVALFADGPTAIRDVGSWRVKETERMVAIRTELTKLGASVEEGPDYCIITPPEKLNVTAIDTYGDHRMAMAFSLAACAEVPVTIRDPGCTRKTFPDYFDVLSTFVKN
modifications: Zea mays
B4: Zm D2-82: maize EPSPS variant, SEQ ID NO: 6 (protein)
chain: B3 chain with G36A, A38S, R227H, S241K, L243E, A303T, R368C, E391P
modifications: Zea mays
B5: Zm D2-67: maize EPSPS variant, SEQ ID NO: 5 (protein)
chain: B3 chain with G36A, A38S, R227H, S241K, L243E, A303T, E391P
modifications: Zea mays
B6: Zm D2-68: maize EPSPS variant, SEQ ID NO: 4 (protein)
chain: B3 chain with G36A, H54L, R227H, S241K, A303T, G354A, R368C, E391P
modifications: Zea mays
B7: Zm F3: maize EPSPS variant, SEQ ID NO: 11 (protein)
chain: MAGAEEIVLQPIKEISGTVKLPGSKSLSNRILLLAALSEGTTVVDNLLNSEDVHYMLGALRTLGLSVEADKAAKRAVVVGCGGKFPVEDAKEEVQLFCGNAATAMRPLTAAVTAAGGNATYVLDGVPRMRERPIGDLVVGLKQLGADVDCFLGTDCPPVRVNGIGGLPGGKVKLSGSISSQYLSALLMAAPLALGDVEIEIIDKLISIPYVEMTLRLMERFGVKAEHSDSWDRFYIKGGQKYKSPKNAYVEGDASSASYFLAGAAITGGTVTVEGCGTTSLQGDVKFAEVLEMMGAKVTWTETSVTVTGPPREPFGRKHLKAIDVNMNKMPDVAMTLAVVALFADGPTAIRDVASWRVKESERMVAIRTELTKLGASVEEGPDYCIITPPEKLNVTAIDTYGDHRMAMAFSLAACAEVPVTIRDPGCTRKTFPDYFDVLSTFVKN
modifications: Zea mays
B8: Zm F3-88: maize EPSPS variant, SEQ ID NO: 12 (protein)
chain: B7 chain with H54G, R216V, E226Y, K297A, V333A, R429A
modifications: Zea mays

Positions count from the first letter of the chain named.

One data set deals with maize EPSPS. Kind of data set: kcat gly / kgly: enzyme turnover under application conditions (30 μM PEP and S3P, 1 mM glyphosate), phosphate release coupled to MESG. In kind it is biochemical. Particulars: D2c variants with substitutions relative to D2-124; no unit in table (kcat gly given in min^−1). The method, then:
A more straight-forward, accurate and meaningful parameter is one in which one rate measurement is performed under presumed in vivo conditions, if known. To establish a set of conditions that mimic those under which the mutated enzyme needs to perform, the concentrations of PEP and S3P were set low (30 uM, subject to the sensitivity of assay conditions) to approach the presumed intracellular concentrations (˜15 uM, the approximate values of KM for both PEP and S3P). Glyphosate is included at 1 mM. The pH is set at 7.0 and ionic strength at 100 mM KCl, also to mimic known in vivo conditions. Ethylene glycol is present at 5% (v/v) to approximate the dielectric constant of intracellular fluid. The parameter is termed “enzyme turnover under application conditions”, which is herein shortened to “kcat gly”. The conventional formatting of the expression “kcat” is not used, to avoid this term being characterized as a standard kinetic constant.
(§1) EPSPS activity was determined by quantifying the phosphate generated from the EPSPS reaction. Release of inorganic phosphate was coupled to its reaction with 2-amino-6-mercapto-7-methylpurine ribonucleoside (MESG), catalyzed by purine nucleoside phosphorylase, according to previously described protocols. To determine the kcat gly, enzyme preparations were normalized to 0.1 mg/ml and four- to six-microliter aliquots of normalized enzyme were added to the wells of a low UV-absorbing 96-well assay plate (Greiner UV-Star). Reactions were started with the addition of 2×147 μl of reaction mixture containing 25 mM Hepes, pH 7.0, 100 mM KCl, 5% ethylene glycol, 30 μM each of PEP and S3P, 0.15 mM MESG, 1.5 U/ml purine nucleoside phosphorylase (Sigma N8264) and 1 mM glyphosate. Absorbance was monitored at 4 sec intervals for 50 sec with a Spectramax plate reader (Molecular Devices). […] Division by the enzyme concentration (0.04 to 0.1 uM, depending on activity) yields “kcat gly” in units of min^−1.
(§2) Approximately 30 substitutions were designed into each library. Assuming an average incorporation rate of six substitutions per variant, the theoretical size of such libraries is ˜7×10^5. Libraries were screened using methods described previously and the enhanced method described in Example 2. The number of colony-forming units plated and screened was in the range of 50 to 100% of the theoretical size. Up to 200 colonies per library were picked for evaluation of the expressed variant. Proteins were purified as described previously in PCT/US2016/054399, incorporated herein by reference. Protein concentration was determined by measuring optical density at 280 nm. The extinction coefficient of native maize EPSPS (0.676 OD/mg/ml) was calculated by vNTI and used to convert OD280 to mg/ml. Kinetic parameters were determined as described in Example 1.
A customized parameter for predicting performance in the treated plant that would be a more accurate representation than kcat/Km*Ki. […] However, kcat/Km*Ki may be inadequate for predicting the reaction velocity under the conditions of the application (plants sprayed with glyphosate) because it may neglect concentrations of substrate and inhibitor, factors that are not intrinsic to the enzyme, but on which the reaction rate depends. Therefore, libraries derived from C1 on in FIG. 2 were evaluated with a single rate measurement designed to take all factors in the rate equation for competitive inhibition into account. […] Glyphosate was included at 1 mM, a concentration attainable in tissues, especially meristems, receiving metabolite flow from treated leaves. The pH (7.0), ionic strength (100 mM KCl) and co-solvent concentration (5% ethylene glycol) were also intended to mimic in vivo conditions. The unit for the parameter is reaction rate (μM·min^−1) per enzyme concentration (μM), or min^−1, describing the enzyme turnover under application conditions, which we abbreviate as “kgly”. […]
B1: the kcat gly is listed as 156.

Still in this data set, the particulars now being: Table 2; 30 μM PEP and S3P, 1 mM glyphosate, pH 7.0.
Consider B2, for which the kcat gly was 132 min⁻¹.
Take B3: the kcat gly came out at 120 min⁻¹.
Take B4: the kcat gly was 124 min⁻¹.
For B5, the kcat gly is 119 min⁻¹.
As for B6, the kcat gly was found to be 113 min⁻¹.
On to B7, for which the kcat gly worked out at 39.3 min⁻¹.
In the case of B8, the kcat gly was determined as 85.7 min⁻¹.

Staying with this data set, now noted: Table 5; maize variants.
As for B5, the kcat gly turned out to be 138 min⁻¹.
Turning to B7, the kcat gly was found to be 45.2 min⁻¹.
Regarding B8, the kcat gly was 98 min⁻¹.

The same data set, now with this note: Table 5; ratio of kcat gly, maize variant to rice ortholog.
In the case of B5, the Zm/Os turned out to be 1.35.
Regarding B7, the Zm/Os was determined as 1.16.
As for B8, the Zm/Os was determined as 1.57.

The same data set, now with this note: enzyme turnover at 30 μM PEP and S3P, 1 mM glyphosate.
For B2, the kgly was determined as 175 ± 2.5 min⁻¹.
On the same count and under the same terms, the value for B1 was 186 ± 4.7 min⁻¹.

For a further data set, the target named is maize EPSPS. The data set can be described thus: substrate saturation kinetic analysis (kcat, KM PEP, KI glyphosate). Particulars: Ki for glyphosate. It is filed as biochemical. On the procedure: as §1, §2
Combinatorial shuffling, maize native EPSPS—The mutations discovered were used to construct a combinatorial library designed to explore combinations of the desensitizing mutations in novel sequence contexts provided by the newly identified neutral mutations. Note that the amino acid position numbering in this Example 10 refers to the relative position of native maize EPSPS without the N-terminal Met. Therefore, G101A in this Example would be G102A in reference to SEQ ID NO: 1, wherein the maize EPSPS sequence has a Met added at the N-terminal. The diversity used was the same with the addition of G101A, T102 (IALGV) and P106(WA). In all, 43 substitutions at 29 positions were selected. The library was synthesized entirely from oligonucleotides, using the known technique of synthetic shuffling and was termed NatFS (Native, fully synthetic). The vector DNA of the library was transformed into the BL21(DE3) Tuner-AroA knockout strain and the cells were plated onto M9 medium containing either 30 mM glyphosate and 30 μM of the lac operon inducer isopropyl β-D-1-thiogalactopyranoside (IPTG) or 50 mM glyphosate and no IPTG. The 184 colonies that grew on either plate were picked and subjected to a second tier of screening in which EPSPS proteins were purified and activity measured at high (200 μM) and low (50 μM) PEP and S3P, with or without 10 μM glyphosate. Selected variants were subjected to substrate saturation kinetic analysis.
In the case of B2, the Ki was 893 ± 53 µM.
B1: the Ki turned out to be 839 ± 40 µM.

The data set is the same for the next values; noted with them: Table 2.
For B2, the kcat was found to be 9.88 s⁻¹ and the “kcat/KM*KI” value is recorded as 22710.
As to B3, the kcat came out at 8.03 s⁻¹ and the “kcat/KM*KI” value amounted to 21500.
Consider B4, for which the kcat was 10.4 s⁻¹ and the “kcat/KM*KI” value was found to be 30900.
With B5, the kcat amounted to 9.47 s⁻¹ and the “kcat/KM*KI” value is listed as 27100.
Consider B6, for which the kcat is 9.23 s⁻¹ and the “kcat/KM*KI” value came to 37400.
For the molecule B7, the kcat was determined as 7.87 s⁻¹ and the “kcat/KM*KI” value is on record as 7280.
For the molecule B8, the kcat came to 11.6 s⁻¹ and the “kcat/KM*KI” value was 29600.

The data set is the same for the next values; noted with them: Table 2; KM for PEP; read-out: KM.
As for B2, the Km was 34.7 µM.
Turning to B3, the Km is 15.8 µM.
In the case of B4, the Km is 26.3 µM.
As to B5, the Km was found to be 20 µM.
As for B6, the Michaelis constant (Km) amounted to 22.1 µM.
Regarding B7, the Km was determined as 71.5 µM.
On to B8, for which the Km came out at 55.6 µM.

The data set is the same for the next values; noted with them: Table 2; discrimination between glyphosate and PEP.
On to B2, for which the KI/KM stood at 38.3.
With B3, the KI/KM was determined as 44.5.
Turning to B4, the KI/KM is recorded as 49.4.
For the molecule B5, the KI/KM amounted to 47.7.
On to B6, for which the KI/KM is 67.5.
On the same count and under the same terms, the value for B7 was 15.4.
The same measure, in the same setting: the value for B8 was 44.0.

The data set is the same for the next values; noted with them: Table 2; inhibitor glyphosate.
Turning to B2, the Ki stood at 1330 µM.
Regarding B3, the Ki amounted to 703 µM.
Take B4: the inhibition constant Ki came to 1300 µM.
For B5, the Ki worked out at 955 µM.
On to B6, for which the Ki was found to be 1490 µM.
For B7, the Ki amounted to 1100 µM.
With B8, the Ki is 2440 µM.

The data set is the same for the next values; noted with them: apparent Km; PEP present at 10 times its Km; read-out: Km S3P.
For the molecule B2, the Km worked out at 11.1 ± 0.7 µM.
For B1, the Km stood at 12.6 ± 1.4 µM.

The same data set, now with this note: apparent Km; S3P present at 10 times its Km; read-out: Km PEP.
In the case of B2, the Km is 18.1 ± 0.7 µM.
B1: the Km turned out to be 18.1 ± 0.6 µM.

Staying with this data set, now noted: calculated with Km for PEP.
For the molecule B2, the “kcat/Km*Ki” value was 31130.
Same read-out and setting: the value for B1 was 34350.

The data set is the same for the next values; noted with them: maize EPSPS variants.
B2: the kcat came to 10.5 ± 0.083 s⁻¹.
Still for that read-out and setting: the value for B1 was 12.4 ± 0.1 s⁻¹.
